Experimental data: PMC9098913, “In vitro reconstitution of Escherichia coli divisome activation” (Nature Communications, 2022)

Experiment: Membrane off-binding rate (koff) of FtsA from FRAP
Source text: We could also use the data from these bleaching experiments to quantify the membrane-binding kinetics and diffusion of membrane-bound proteins by analysing the change of the fluorescence profile during recovery.
Equimolar concentrations of Cy3- and Cy5-labelled FtsA, supplemented with 20% unlabelled FtsA were used to study FRET and FRAP. Five pre-bleach frames were acquired, followed by acceptor photobleaching of a rectangular ROI with 40% 641 nm laser power and a dwell size of 1 µs/pixel, 75% overlapping lines. The recovery of the signal or the increase in donor intensity were measured with either two frames or one frame per second.
Bleaching the acceptor dye leads to an increase in the donor intensity, which can be used to quantify the Foerster Resonance energy transfer (FRET)[48]. FRET efficiency was quantified with E%=Ipost/Ipost+Ipre⋅100 , where Ipost is the intensity of the […] and Ipre is the […]. […] To extract the contribution of both processes, we adjusted a routine recently published by Gerganova et al.[33]. In short, the code provides the contribution of both modes of recovery by analysing the shape of the fluorescence recovery profile. […] Contribution of diffusion leads to a change of the slope of the outer borders of the bleached region (S4h right). Thus, by measuring the change of the slope of the border recovery, diffusion and simple on/off binding can be distinguished. We developed “FRAPdiff”, a graphical user interface, which uses the original fit routine by David Rutkowski. It can be used directly on.tiff movies with annotated bleach regions as ImageJ ROIs. In addition, we added optional bleach correction, user selectable projection axis (x or y), and optional mirroring of the recovery profiles, if bleaching was not symmetric. The original fit routine for estimating the recovery and diffusion dynamics can be found at https://github.com/davidmrutkowski/1DReflectingDiffusion. FRAPdiff is available at 10.5281/zenodo.6400639[49] under the GPLv3 open-source license.

B1: FtsA R286W (protein)
chain: MIKATDRKLVVGLEIGTAKVAALVGEVLPDGMVNIIGVGSCPSRGMDKGGVNDLESVVKCVQRAIDQAELMADCQISSVYLALSGKHISCQNEIGMVPISEEEVTQEDVENVVHTAKSVRVRDEHRVLHVIPQEYAIDYQEGIKNPVGLSGVRMQAKVHLITCHNDMAKNIVKAVERCGLKVDQLIFAGLASSYSVLTEDERELGVCVVDIGGGTMDIAVYTGGALRHTKVIPYAGNVVTSDIAYAFGTPPSDAEAIKVRHGCALGSIVGKDESVEVPSVGGRPPWSLQRQTLAEVIEPRYTELLNLVNEEILQLQEKLRQQGVKHHLAAGIVLTGGAAQIEGLAACAQRVFHTQVRIGAPLNITGLTDYAQEPYYSTAVGLLHYGKESHLNGEAEVEKRVTASVGSWIKRLNSWLRKEF
modifications: Cy3 or Cy5 at the N-terminus in the labelled form (labelled CLEPTGG peptide conjugated to the 5xGly tag by sortagging); unlabelled protein also used; left off: TwinStrep-SUMO, N-terminal, cleaved | 5x
Q: What does the source list for B1?
A: Off binding rate, mean (0.1 µM FtsA + FtsN&Z): 0.0939 s; Off binding rate, mean (0.1 µM FtsA + FtsN): 0.062 s; Off binding rate, mean (0.1 µM FtsA + FtsZ): 0.204 s; Off binding rate (0.1µM FtsA alone, Mean, n=6): 0.3263; Off binding rate, mean (0.1 µM FtsA alone): 0.326 s; Off binding rate (0.1µM FtsA alone, replicate Exp.1): 3.18E-01; Off binding rate (0.1µM FtsA alone, replicate Exp.2): 1.79E-01; Off binding rate (0.1µM FtsA alone, replicate Exp.3): 4.12E-01; Off binding rate (0.1µM FtsA alone, replicate Exp.4): 4.03E-01; Off binding rate (0.1µM FtsA alone, replicate Exp.5): 3.20E-01; Off binding rate (0.1µM FtsA alone, replicate Exp.6): 3.25E-01; Off binding rate (0.1µM, + FtsN&Z, Mean, n=3): 0.0939; Off binding rate (0.1µM, + FtsN&Z, replicate Exp.1): 1.11E-01; Off binding rate (0.1µM, + FtsN&Z, replicate Exp.2): 5.81E-02; Off binding rate (0.1µM, + FtsN&Z, replicate Exp.3): 1.13E-01; Off binding rate (0.1µM, + FtsN, Mean, n=3): 0.0620; Off binding rate (0.1µM, + FtsN, replicate Exp.1): 5.84E-02; Off binding rate (0.1µM, + FtsN, replicate Exp.2): 3.36E-02; Off binding rate (0.1µM, + FtsN, replicate Exp.3): 9.39E-02; Off binding rate (0.1µM, + FtsZ, Mean, n=4): 0.2040; Off binding rate (0.1µM, + FtsZ, replicate Exp.1): 1.08E-01; Off binding rate (0.1µM, + FtsZ, replicate Exp.2): 3.38E-01; Off binding rate (0.1µM, + FtsZ, replicate Exp.3): 3.22E-01; Off binding rate (0.1µM, + FtsZ, replicate Exp.4): 4.74E-02; Off binding rate, mean (0.2 µM FtsA + FtsN&Z): 0.099 s; Off binding rate, mean (0.2 µM FtsA + FtsN): 0.171 s; Off binding rate, mean (0.2 µM FtsA + FtsZ): 0.227 s; Off binding rate (0.2µM FtsA alone, Mean, n=6): 0.2513; Off binding rate, mean (0.2 µM FtsA alone): 0.251 s; Off binding rate (0.2µM FtsA alone, replicate Exp.1): 2.65E-01; Off binding rate (0.2µM FtsA alone, replicate Exp.2): 3.55E-01; Off binding rate (0.2µM FtsA alone, replicate Exp.3): 3.00E-01; Off binding rate (0.2µM FtsA alone, replicate Exp.4): 1.69E-01; Off binding rate (0.2µM FtsA alone, replicate Exp.5): 2.80E-01; Off binding rate (0.2µM FtsA alone, replicate Exp.6): 1.38E-01; Off binding rate (0.2µM, + FtsN&Z, Mean, n=6): 0.0990; Off binding rate (0.2µM, + FtsN&Z, replicate Exp.1): 2.98E-02; Off binding rate (0.2µM, + FtsN&Z, replicate Exp.2): 2.05E-01; Off binding rate (0.2µM, + FtsN&Z, replicate Exp.3): 6.45E-02; Off binding rate (0.2µM, + FtsN&Z, replicate Exp.4): 4.84E-02; Off binding rate (0.2µM, + FtsN&Z, replicate Exp.5): 1.35E-01; Off binding rate (0.2µM, + FtsN&Z, replicate Exp.6): 1.11E-01; Off binding rate (0.2µM, + FtsN, Mean, n=4): 0.1710; Off binding rate (0.2µM, + FtsN, replicate Exp.1): 5.13E-02; Off binding rate (0.2µM, + FtsN, replicate Exp.2): 3.51E-01; Off binding rate (0.2µM, + FtsN, replicate Exp.3): 1.05E-01; Off binding rate (0.2µM, + FtsN, replicate Exp.4): 1.76E-01; Off binding rate (0.2µM, + FtsZ, Mean, n=6): 0.2270; Off binding rate (0.2µM, + FtsZ, replicate Exp.1): 2.24E-01; Off binding rate (0.2µM, + FtsZ, replicate Exp.2): 4.14E-01; Off binding rate (0.2µM, + FtsZ, replicate Exp.3): 9.28E-02; Off binding rate (0.2µM, + FtsZ, replicate Exp.4): 4.05E-01; Off binding rate (0.2µM, + FtsZ, replicate Exp.5): 1.38E-01; Off binding rate (0.2µM, + FtsZ, replicate Exp.6): 8.76E-02; Off binding rate, mean (0.4 µM FtsA + FtsN&Z): 0.101 s; Off binding rate, mean (0.4 µM FtsA + FtsN): 0.18 s; Off binding rate, mean (0.4 µM FtsA + FtsZ): 0.179 s; Off binding rate (0.4µM FtsA alone, Mean, n=9): 0.3738; Off binding rate, mean (0.4 µM FtsA alone): 0.374 s; Off binding rate (0.4µM FtsA alone, replicate Exp.1): 7.99E-01; Off binding rate (0.4µM FtsA alone, replicate Exp.2): 6.65E-01; Off binding rate (0.4µM FtsA alone, replicate Exp.3): 6.54E-01; Off binding rate (0.4µM FtsA alone, replicate Exp.4): 2.78E-01; Off binding rate (0.4µM FtsA alone, replicate Exp.5): 1.57E-01; Off binding rate (0.4µM FtsA alone, replicate Exp.6): 1.25E-01; Off binding rate (0.4µM FtsA alone, replicate Exp.7): 2.26E-01; Off binding rate (0.4µM FtsA alone, replicate Exp.8): 2.05E-01; Off binding rate (0.4µM FtsA alone, replicate Exp.9): 2.55E-01; membrane exchange (off-rate) (0.4 µM FtsA, p-value 6.73 × 10^−6): 0.37 ± 0.24 s⁻¹; Off binding rate (0.4µM, + FtsN&Z, Mean, n=9): 0.1008; Off binding rate (0.4µM, + FtsN&Z, replicate Exp.1): 3.83E-02; Off binding rate (0.4µM, + FtsN&Z, replicate Exp.2): 7.71E-02; Off binding rate (0.4µM, + FtsN&Z, replicate Exp.3): 4.63E-02; Off binding rate (0.4µM, + FtsN&Z, replicate Exp.4): 2.42E-01; Off binding rate (0.4µM, + FtsN&Z, replicate Exp.5): 1.75E-01; Off binding rate (0.4µM, + FtsN&Z, replicate Exp.6): 5.12E-02; Off binding rate (0.4µM, + FtsN&Z, replicate Exp.7): 5.06E-02; Off binding rate (0.4µM, + FtsN&Z, replicate Exp.8): 1.16E-01; Off binding rate (0.4µM, + FtsN&Z, replicate Exp.9): 1.11E-01; Off binding rate (0.4µM, + FtsN, Mean, n=6): 0.1799; Off binding rate (0.4µM, + FtsN, replicate Exp.1): 1.51E-01; Off binding rate (0.4µM, + FtsN, replicate Exp.2): 4.77E-02; Off binding rate (0.4µM, + FtsN, replicate Exp.3): 2.92E-01; Off binding rate (0.4µM, + FtsN, replicate Exp.4): 2.85E-01
